The values below come from US20250171531A1 (ORIONIS BIOSCIENCES, published 2025).

The target of experiment [1] is T1, recombinant IL-2 (Acro Biosystems) (UniProt P60568 21-153).
T1 construct: also called Interleukin-2; wild type recombinant IL-2
Nature of the experiment: BLI, biotinylated IL-2 on streptavidin sensors, seven concentrations of construct as analyte. The text has this:
(§1) In brief, recombinant IL-2 (Acro Biosystems) was biotinylated using the Pierce Antibody Biotinylation Kit for IP (ThermoFisher) and loaded on Streptavidin sensors. […] Sensorgrams and calculated binding kinetics provided in FIG. 2 illustrate that (i) all anti-IL-2 constructs clearly bind to biotinylated IL-2; (ii) for both anti-IL-2 antibody scFv variants, the VL-VH configuration (referred to as scFv_v2) seems to work best; and (iii) TCB2-based anti-IL-2 constructs tend to associate faster, while NARA1 anti-IL-2 constructs dissociate slower.
For orientation: In BLI a coated tip is dipped into the sample, and binding shifts an interference pattern.

For experiment [2], the target named is CD8alpha on CD8 positive T cells of PBMCs (UniProt P01732 22-235, limits assumed). The experiment is described as follows: cell-based or functional assay.
Sequence of CD8alpha on CD8 positive T cells of PBMCs (P01732 22-235 limits assumed): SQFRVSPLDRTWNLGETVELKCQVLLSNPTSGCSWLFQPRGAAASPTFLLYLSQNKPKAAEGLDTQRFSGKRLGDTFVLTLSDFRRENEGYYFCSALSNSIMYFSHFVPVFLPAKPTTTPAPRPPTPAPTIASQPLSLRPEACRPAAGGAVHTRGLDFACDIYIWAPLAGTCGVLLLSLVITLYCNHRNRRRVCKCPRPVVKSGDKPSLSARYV
Experiment [3] deals with T1, recombinant IL-2 (Acro Biosystems). Nature of the experiment: BLI (Octet RED96).
Source text: as §1

T1 sequence (P60568 21-153 limits assumed): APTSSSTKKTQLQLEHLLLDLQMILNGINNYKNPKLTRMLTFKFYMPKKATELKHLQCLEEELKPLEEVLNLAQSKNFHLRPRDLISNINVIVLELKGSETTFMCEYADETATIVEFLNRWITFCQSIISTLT

B1: anti-IL-2 Ab TCB2 scFv_VH-VL-3*GGGGS-anti-CD8 OKT8 scFv_VH-VL-6*His (bispecific antibody)
chain: EVQLQQSGAELARPGASVKLSCKASGYTFTTYWIQWVKQRPGQGLEWIGAIYPGDGDTRYIQNFKGKATLTADKSSSTAYMQLSSLASEDSAVYYCARSLATRGFYAMDYWGQGTSVTVSSGGGGSGGGGSGGGGSDIVMTQSPASLSMAIGEKVTIRCITSTDIDDDMNWYQQKPGEPPKLLISEGNTLRPGVPSRFSSSGYGTDFVFTIENMLSEDVADYYCLQSDNLPYTFGGGTKLEIKGGGGSGGGGSGGGGSEVQLVQSGAEVKKPGASVKVSCKASGFNIKDTYIHWVRQAPGQGLEWIGRIDPANDNTLYASKFQGRATITADTSTSTAYLELSSLRSEDTAVYYCGRGYGYYVFDHWGQGTLVTVSSGGGGSGGGGSGGGGSDVQITQSPSSLSASVGDRVTITCRTSRSISQYLAWYQEKPGKTNKLLIYSGSTLQSGIPSRFSGSGSGTDFTLTISSLQPEDFATYYCQQVNEFPPTFGQGTKVEIKHHHHHH
notes: Single chain of two scFvs with a C-terminal His6 tag; Leader (residues 1-19) left out
Turning to B1, in experiment [1], the binding result is “binds”.

B2: anti-IL-2 Ab TCB2 scFv_VL-VH-3*GGGGS-anti-CD8 OKT8 scFv_VH-VL-6*His (bispecific antibody)
chain: DIVMTQSPASLSMAIGEKVTIRCITSTDIDDDMNWYQQKPGEPPKLLISEGNTLRPGVPSRFSSSGYGTDFVFTIENMLSEDVADYYCLQSDNLPYTFGGGTKLEIKGGGGSGGGGSGGGGSEVQLQQSGAELARPGASVKLSCKASGYTFTTYWIQWVKQRPGQGLEWIGAIYPGDGDTRYIQNFKGKATLTADKSSSTAYMQLSSLASEDSAVYYCARSLATRGFYAMDYWGQGTSVTVSSGGGGSGGGGSGGGGSEVQLVQSGAEVKKPGASVKVSCKASGFNIKDTYIHWVRQAPGQGLEWIGRIDPANDNTLYASKFQGRATITADTSTSTAYLELSSLRSEDTAVYYCGRGYGYYVFDHWGQGTLVTVSSGGGGSGGGGSGGGGSDVQITQSPSSLSASVGDRVTITCRTSRSISQYLAWYQEKPGKTNKLLIYSGSTLQSGIPSRFSGSGSGTDFTLTISSLQPEDFATYYCQQVNEFPPTFGQGTKVEIKHHHHHH
notes: as for B1
Regarding B2, in experiment [1], the binding result was “binds”.

B3: 'knob-in-hole' Fc-Anti-IL-2 construct (TCB2 scFv_v2-hFc3 + hFc4-OKT8 scFv) (bispecific antibody)
chain 1: DIVMTQSPASLSMAIGEKVTIRCITSTDIDDDMNWYQQKPGEPPKLLISEGNTLRPGVPSRFSSSGYGTDFVFTIENMLSEDVADYYCLQSDNLPYTFGGGTKLEIKGGGGSGGGGSGGGGSEVQLQQSGAELARPGASVKLSCKASGYTFTTYWIQWVKQRPGQGLEWIGAIYPGDGDTRYIQNFKGKATLTADKSSSTAYMQLSSLASEDSAVYYCARSLATRGFYAMDYWGQGTSVTVSSGGSGGSGGSGGSGGSDKTHTCPPCPAPEAAGGPSVFLFPPKPKDTLMISRTPEVTCVVVDVSHEDPEVKFNWYVDGVEVHNAKTKPREEQYNSTYRVVSVLTVLHQDWLNGKEYKCKVSNKALPAGIEKTISKAKGQPREPQVCTLPPSRDELTKNQVSLSCAVKGFYPSDIAVEWESNGQPENNYKTTPPVLDSDGSFFLVSKLTVDKSRWQQGNVFSCSVMHEALHNHYTQKSLSLSPGK
chain 2: not shown
Regarding B3, in experiment [2], the “IL-2 driven STAT5 phosphorylation in CD8+ over Treg cells” value is 10 fold.

B4: anti-IL-2 Ab NARA1 scFv_VL-VH-3*GGGGS-anti-CD8 OKT8 scFv_VH-VL-6*His (bispecific antibody)
chain: DIVLTQSPASLAVSLGQRATISCKASQSVDYDGDSYMNWYQQKPGQPPKLLIYAASNLESGIPARFSGSGSGTDFTLNIHPVEEEDAATYYCQQSNEDPYTFGGGTKLEIKGGGGSGGGGSGGGGSQVQLQQSGAELVRPGTSVKVSCKASGYAFTNYLIEWVKQRPGQGLEWIGVINPGSGGTNYNEKFKGKATLTADKSSSTAYMQLSSLTSDDSAVYFCARWRGDGYYAYFDVWGAGTTVTVSSGGGGSGGGGSGGGGSEVQLVQSGAEVKKPGASVKVSCKASGFNIKDTYIHWVRQAPGQGLEWIGRIDPANDNTLYASKFQGRATITADTSTSTAYLELSSLRSEDTAVYYCGRGYGYYVFDHWGQGTLVTVSSGGGGSGGGGSGGGGSDVQITQSPSSLSASVGDRVTITCRTSRSISQYLAWYQEKPGKTNKLLIYSGSTLQSGIPSRFSGSGSGTDFTLTISSLQPEDFATYYCQQVNEFPPTFGQGTKVEIKHHHHHH
notes: as for B1
For the molecule B4, the binding result in experiment [1] was “binds”.

B5: anti-IL-2 Ab NARA1 scFv_VH-VL-3*GGGGS-anti-CD8 OKT8 scFv_VH-VL-6*His (bispecific antibody)
chain: QVQLQQSGAELVRPGTSVKVSCKASGYAFTNYLIEWVKQRPGQGLEWIGVINPGSGGTNYNEKFKGKATLTADKSSSTAYMQLSSLTSDDSAVYFCARWRGDGYYAYFDVWGAGTTVTVSSGGGGSGGGGSGGGGSDIVLTQSPASLAVSLGQRATISCKASQSVDYDGDSYMNWYQQKPGQPPKLLIYAASNLESGIPARFSGSGSGTDFTLNIHPVEEEDAATYYCQQSNEDPYTFGGGTKLEIKGGGGSGGGGSGGGGSEVQLVQSGAEVKKPGASVKVSCKASGFNIKDTYIHWVRQAPGQGLEWIGRIDPANDNTLYASKFQGRATITADTSTSTAYLELSSLRSEDTAVYYCGRGYGYYVFDHWGQGTLVTVSSGGGGSGGGGSGGGGSDVQITQSPSSLSASVGDRVTITCRTSRSISQYLAWYQEKPGKTNKLLIYSGSTLQSGIPSRFSGSGSGTDFTLTISSLQPEDFATYYCQQVNEFPPTFGQGTKVEIKHHHHHH
notes: Single chain of two scFvs with a C-terminal His6 tag
As to B5, in experiment [3], the binding result is recorded as “binds”.
